Results reported in patent US20200354468A1 (US Dept. of Health and Human Services, published 2020).
Blank lines part the entries; values can stand above or below the binder they belong to.

Columns and labels:
[1] = target: T1, Recombinant CD133 domain A polypeptide (Homo sapiens, UniProt O43490 180-400, limits assumed); assay: direct ELISA, recombinant domain coated
T1 construct: also called CD133A; recombinant CD133 Extracellular Domain A
T1 sequence: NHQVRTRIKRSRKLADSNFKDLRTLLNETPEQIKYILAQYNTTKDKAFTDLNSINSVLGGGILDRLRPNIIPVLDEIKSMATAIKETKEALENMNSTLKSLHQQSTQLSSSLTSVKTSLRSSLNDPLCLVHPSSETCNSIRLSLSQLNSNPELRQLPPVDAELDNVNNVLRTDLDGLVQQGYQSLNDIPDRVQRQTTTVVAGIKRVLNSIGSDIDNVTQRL
Protocol: (§1) The cDNAs of IgG heavy and light chains were amplified by polymerase chain reaction (PCR) and cloned into a mammalian expression vector. The recombinant monoclonal antibody was then transiently expressed using a HEK293 cell system. The expressed recombinant antibodies were then tested by ELISA against CD133 immunogenic polypeptides A and B and recombinant domain A and B polypeptides. […] The testing confirmed the specificity of the mAbs. The cDNA was sequenced.

[2] = target: T2, BSA-conjugated CD133 immunogenic polypeptide B (Homo sapiens, lysine added as C-terminal residue for conjugation; conjugated to BSA); assay: direct ELISA, BSA-conjugated peptide coated
T2 construct: The peptide stood in the assays as a BSA conjugate; the text gives 615-643; also called B-BSA; Pep B
T2 peptide: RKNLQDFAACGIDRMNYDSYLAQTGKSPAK

[3] = target: T3, BSA-conjugated CD133 immunogenic polypeptide A (Homo sapiens, N-terminal lysine used for conjugation; conjugated to BSA); assay: direct ELISA, BSA-conjugated peptide coated
T3 construct: The peptide stood in the assays as a BSA conjugate; also called A-BSA; PepA
T3 peptide: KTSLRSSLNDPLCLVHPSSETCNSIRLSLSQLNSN

[4] = target: T4, Recombinant CD133 domain B polypeptide (Homo sapiens, UniProt O43490 515-745); assay: subclone screening by ELISA and Western blot
T4 construct: also called CD133B; recombinant CD133 Extracellular Domain B
T4 sequence: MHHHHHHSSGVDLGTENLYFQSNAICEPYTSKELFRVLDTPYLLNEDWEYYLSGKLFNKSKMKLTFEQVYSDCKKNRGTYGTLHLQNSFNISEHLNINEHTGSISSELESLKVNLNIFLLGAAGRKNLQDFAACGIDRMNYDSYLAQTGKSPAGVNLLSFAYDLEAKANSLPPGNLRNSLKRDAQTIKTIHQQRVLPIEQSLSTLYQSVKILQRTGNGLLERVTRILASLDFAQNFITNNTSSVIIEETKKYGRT

[5] = target: T4, Recombinant CD133 domain B polypeptide; assay: direct ELISA, recombinant domain coated
Protocol: as §1

binding result [1]: no binding | binding result [2]: binds | binding result [3]: no binding | binding result [4]: binds
B1: anti-CD133 monoclonal antibody mAb 133-3 (antibody, V domains shown)
VH: QSVEESGGRLVTPGTPLTLTCTVSGFSLSRYAMSWVRQAPGKGLDWIGYIDIGGGAYYASWAKGRFTISETSTTVYLKVNSPTTEDTATYFCARGVANSDIWGPGTLVTVSS
VL: ALVMTQTPSPVSAAVGGTVTINCQSSQSVFNNKWLSWYQQKPGQPPKLLIYFVSTLASGVPSRFKGSGSGTQFTLTISGVQCDDAATYYCQGSDYSSGWYSPFGGGTEVVVEG
notes: Rabbit IgG from a hybridoma, cloned and made recombinantly in HEK293 cells

binding result [5]: no binding | binding result [2]: no binding
B2: anti-CD133 monoclonal antibody mAb 47-10 (antibody, V domains shown)
VH: QSVEESGGRLVTPGTPLTLTCTVSGIDLNNYNMQWVRQAPGKGLEWIGATFGSDSIYYATWAKGRFTISKTSTTVDLKMTSLTTEDTATYFCARGGLWGPGTLVTVSS
VL: AQVLTQTASPVSAAVGATVTINCQSSQSVYNNNYLAWFQQKPGQPPKLLIYRASTLASGVSSRFKGSGSGTQFALTISGVQCDDAGTYYCQGEFSCDSADCAAFGGGTEVVVKG
notes: Rabbit IgG from a hybridoma, cloned and made recombinantly in HEK293 cells; also called clone 47-10; mAb subclone 47-10
